Results on 133 substances are retold here after the supplement of paper PMC12042874.

± gives the uncertainty stated by the source.

A short description of this data set: amyloid nucleation score (Sup35N fusion, yeast selection) (log enrichment); library NNK3; higher = more nucleation; inactive = no reads after selection. Put shortly:
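Yeast lacking psi expressed peptides of 20 random codons fused to Sup35N, received 100 μM copper sulfate for 24 hours, and were then grown for 7 days at 30°C on medium lacking adenine and uracil. Illumina sequencing of input and output plasmid inserts provided the reads. Nucleation scores are DiMSum log enrichments of output over input, centred on the mode of non-aggregating sequences. Any sequence with under 100 input reads was excluded.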
As to SETDFYHGFIWGIPIGALSG, the amyloid nucleation score entry is “inactive”. Under SEVFFGSVPNDARDKLNTNP stands “inactive”; under SEVFNQLGTARSNMARRACA, “inactive”. The entry for SFCIIY is “inactive”. Under SFCYN stands “inactive”. Regarding SFFFHSKSSGKTLNWSSDKA, the amyloid nucleation score stood at 0.956 ± 0.091. Under SFFNFRMD stands “inactive”. The entry for SFGMCTMYFYLNVCMAKGAR is “inactive”; for SFICVSSDLCARARVGDSSR it is “inactive”; for SFKATV it is “inactive”.

With SFKFMYNSFRSNGDIFSFNR, the amyloid nucleation score amounted to 2.35 ± 0.073. Under SFKQIIDRFTSSFIVIFGLR stands “inactive”; under SFLCLISIHCTDNDNGMHNC, “inactive”; under SFLSNCSFPDRSMKAYFIYY, 0.939 ± 0.11. Under SFNTLIILSILFVLRQCGTR stands “inactive”; under SFRHKYYEHRPTIWDMDCDL, “inactive”; under SFRSGLLSGRKWGHPVSSQE, “inactive”. Under SFRSNVGFEVFLIATELRFC stands “inactive”; under SFSEPAHWPSCSRFVRDCVS, “inactive”; under SFSLYLFPSRGLAPLPTAWL, 1.86 ± 0.089.

SFSVSKAWGWMYSIQRCCLC: the amyloid nucleation score result is “inactive”.

SFTSC: the amyloid nucleation score result was “inactive”. Regarding SFYFWSDAYACIKARRM, the amyloid nucleation score result is “inactive”. Under SFYWMHMSAMIEYDPFTYGA stands “inactive”; under SGFDYV, “inactive”.

On to SGFFMMVYRR, for which the amyloid nucleation score was -0.364 ± 0.75. The entry for SGFPMVSIFESSI is “inactive”. Under SGIFKLNCHKVGLILQSPYR stands 0.055 ± 0.35. The entry for SGIRDHLMRTKFDFVFKM is “inactive”.

For SGKGE, the amyloid nucleation score result was “inactive”. Under SGLDSWY stands “inactive”; under SGLSNRGCCIMSY, “inactive”. The entry for SGMVCVSLVG is “inactive”; for SGNNMRLHTTGLVASNGLGS it is “inactive”; for SGNWTDRTVIPYHYYIDKLN it is “inactive”.

With SGPRDSRLCRDSSVSGVYLS, the amyloid nucleation score entry was “inactive”. The entry for SGRVTRWITSAMVARN is “inactive”; for SGVKFSYNWQR it is “inactive”; for SGWYWICLKHRGQVDHPLST it is “inactive”. Under SHECNLCFNVL stands “inactive”; under SHMEWFT, 1.92 ± 0.088; under SHRFLDNFRFTMYTDVLGIE, “inactive”. For the substance SIALH, the amyloid nucleation score result was “inactive”. Under SICSEVGSSQLVVL stands “inactive”; under SIFLMSFRA, 1.41 ± 0.1. Turning to SIGISEPLIIYLFNWQLLYW, the amyloid nucleation score result was “inactive”. In the case of SIGTKLASCLYLKR, the amyloid nucleation score result is “inactive”.

On to SIINLDLTAGHRYFYSSRSR, for which the amyloid nucleation score worked out at 2.11 ± 0.071. The entry for SIKLGFYIIIFDLWYSPMMV is “inactive”; for SIKYSGFMWTWVNLLDPTVP it is “inactive”; for SILKDS it is “inactive”.

On to SILLVMP, for which the amyloid nucleation score result is “inactive”. Turning to SILRVGKERRSGYSSGEEY, the amyloid nucleation score result is “inactive”. Under SILYMVIASWYLY stands “inactive”; under SIMIVLCGKLTLNFSLRNVV, “inactive”. Regarding SIQKSWDASGSLIYS, the amyloid nucleation score result is “inactive”. The entry for SISRLCVRMRIYKRTVAIYL is “inactive”; for SISTFYMLNMLKNMHLDGFG it is “inactive”. The substance SISTQCWSPYVAFHSWKTH registered an amyloid nucleation score of 0.416 ± 0.79.

For SISWRYWKSI, the amyloid nucleation score entry was “inactive”. The figure for SIVRIFIIN is 2.27 ± 0.056; for SIVSPIMRLFCFGLRAYKAV it is “inactive”; for SKAYKAYNVLRLISI it is “inactive”.

On to SKCSVGVLTRFR, for which the amyloid nucleation score entry was “inactive”. The entry for SKDNWSRSTYTGACLR is “inactive”; for SKLFFRNTLVSIISM it is “inactive”. Take SKLKATRTRL: the amyloid nucleation score entry was “inactive”. Under SKRVSALRHKIRKNCVMNFD stands “inactive”; under SKTIYWFPPYPYVQFGCHRR, “inactive”. The entry for SKVACTRLDCMVFKCGTS is “inactive”; for SLAYCLLEWMES it is -0.172 ± 0.48; for SLCRSLGLGLLAPYRFFTWR it is “inactive”. As for SLDIWGCSKGRRWSGFKI, the amyloid nucleation score entry was “inactive”.

For SLDLENILSAE, the amyloid nucleation score result was “inactive”.

Take SLEGTYGHLRQELTTSPNAH: the amyloid nucleation score amounted to 0.907 ± 0.17.

For SLFFSYV, the amyloid nucleation score result was “inactive”. Consider SLGEKMNVASLQAVMSC, for which the amyloid nucleation score entry is “inactive”. The entry for SLGNITVPAT is “inactive”; for SLGSNEKYWERRVSSHNWTT it is “inactive”; for SLGSPYRTRGCLNKSPPLAC it is “inactive”. For SLGVEVKCNTIP, the amyloid nucleation score entry was “inactive”. As to SLGVNLSISVGKYEYSLSLK, the amyloid nucleation score result was “inactive”. On to SLIVQAL, for which the amyloid nucleation score result is “inactive”. Under SLKPLVYMGLST stands “inactive”; under SLLTDTFFIVLWTFT, “inactive”. For the substance SLMDGFLPNSGEFRIKYAVL, the amyloid nucleation score entry was “inactive”. Under SLNFLR stands 0.937 ± 0.39; under SLNILWRSVCFTGCERGYLG, 0.763 ± 0.2.

For the substance SLPYCGVTSLSHSWVPMAIR, the amyloid nucleation score entry is “inactive”. Under SLQISLRYKVIMQRMP stands 1.24 ± 0.16. The entry for SLQKWWDSLTHNLMVVTKHG is “inactive”.

Substance SLRPMLYTSYSS gave an amyloid nucleation score of 0.914 ± 0.17.

On to SLRSFECFSSCTGLWCMLWG, for which the amyloid nucleation score result is “inactive”. Under SLRSYSDVSVVRFDANSTVS stands “inactive”; under SLSILT, “inactive”. SLSLRWFVGCKGSDGSALQC: the amyloid nucleation score result is “inactive”. The figure for SLSLWESRCQITFPLVIKVE is -0.017 ± 0.7; for SLSMATFKAILSLFADTWWR it is “inactive”; for SLSNVGLANFLFSRPSLRSY it is “inactive”. Under SLSPAGSGSFFGKGFWMMLA stands “inactive”. Under SLSVSYDVLWRIFSGNNGNW stands 1.25 ± 0.083; under SLSWHK, “inactive”.

SLSYFLSFS: the amyloid nucleation score is 1.14 ± 0.085. The entry for SLTALDNWCRIFAMPVLSWK is “inactive”; for SLTSSFFSSMDVFNSALKGG it is “inactive”. The entry for SLTVFLWVAQRVAAMRAGVL is “inactive”; for SLVGRSCLRY it is “inactive”. Under SLVMAEVITPIGLSFCSNYT stands “inactive”; under SLVNGAWLAVMNMSRCLWIF, “inactive”; under SLWHMRVWMLCCKGPKTWRF, “inactive”. In the case of SLYKYRIWCMVFVVYFSQSQ, the amyloid nucleation score entry was “inactive”. Consider SLYVSVLYIYRDY, for which the amyloid nucleation score was 1.77 ± 0.077.

On to SLYYSTCIK, for which the amyloid nucleation score entry was “inactive”. The entry for SMCGNWGNWASVGWNFCWRV is “inactive”; for SMCNTSLYWLDHGADLLRSL it is “inactive”. Take SMDWHAYLDRILLYVRSHS: the amyloid nucleation score entry was “inactive”. On to SMLQAMEYYNIGIVYNHKIW, for which the amyloid nucleation score entry was “inactive”.

In turn, SMNFSSWWRLCCDEGSGSYT returned an amyloid nucleation score of 0.671 ± 0.19.

With SMNKFKF, the amyloid nucleation score result was “inactive”. SMRYVTLKPNF: the amyloid nucleation score entry was “inactive”. Regarding SMSFFMSNGRALLYCQMQFA, the amyloid nucleation score entry is “inactive”. The entry for SMVFLASLY is “inactive”. Under SMVNWFMLRTAVVVQSRVAV stands “inactive”; under SMYRYAKETT, “inactive”. The figure for SNAFVYFRFLTFDSRFCCYY is 1.56 ± 0.074; for SNDHKITD it is “inactive”; for SNFGTNSIYMCTAMIPM it is “inactive”. For the substance SNFTTPLHE, the amyloid nucleation score entry is “inactive”. Under SNGAGC stands “inactive”.

As for SNIMHQNVTCESFYCRSSLW, the amyloid nucleation score is 1.81 ± 0.067. The entry for SNMIRVRWRVAFRGWMARCL is “inactive”; for SNSFLFYFEYSGVKLRRLGL it is “inactive”; for SNSFSSSLLCLDARD it is “inactive”.
